Test results as given in patent US20250057965A1, “PEPTIDE OLIGONUCLEOTIDE CONJUGATES” (Sarepta Therapeutics, Inc., priority 2015, published 2025).
Where “and” joins values, the source holds several entries; their conditions need not be identical. Equal values may be shown once.

Assays:
[1] = Maximum tolerated dose (MTD) study in mdx mice: survival and in-life observations; assay type: in vivo, Mouse (mdx); details: for MTD % Survival / MTD in-life observations: n=3
Experimental: The maximum tolerated dose (MTD) of selected peptide-oligomer-conjugates of the disclosure was determined in mice according to the regimens shown in Table 8. […] PPMO-5 has a MTD>200 mg/kg.
Importantly, the toxicity of a peptide-oligomer-conjugate can be described in two phases: t1 and t2. t1 refers to rapid death, or death within 48 hours, most likely due to cardiopulmonary collapse. t2 refers to chronic kidney toxicity, observed with a peptide-oligomer-conjugate after multiple weekly doses. The MTD measurements described herein refer to ti toxicity (48 hour endpoint).

[2] = Individual body weights in dose response study; assay type: in vivo, Mouse (mdx); details: mdx mice
Experimental: (§1) Any animal showing signs of distress, particularly if death appeared imminent was humanely euthanized according to Numira Biosciences Standard Operating Procedures. Body weights were recorded on the day after arrival, the day of dosing, and the day of necropsy. Detailed clinical observations were conducted and recorded at 0 minutes, 15 minutes, and 2 hours post-dose to assess tolerability of injections.

[3] = Animal health / clinical observations in dose response study; assay type: in vivo
Experimental: (§2) The day of dosing on the study was designated as Study Day 1. Each peptide-oligomer-conjugate was vortexted for approximately 10 seconds prior to dosing, and administered via tail vein as a slow push bolus (˜5 seconds; 200 μL). Dosing was performed over two days. All animals receiving the same peptide-oligomer-conjugate were dosed on the same day. […] Any remaining spare animals were necropsied and tissues collected as specified below.
as §1
Animals unlikely to survive until the next scheduled observation were weighed and euthanized. Animals found dead were weighed and the time of death was estimated as closely as possible. Blood and tissue samples were not collected.
The partial gross necropsy included examination and documentation of findings. All external surfaces and orifices were evaluated. All abnormalities observed during the collection of the tissues listed below were described completely and recorded. No additional tissues were taken.

dystrophin exon 23 = assay: Dose response for efficacy in mdx mice: % exon 23 skipping by nested RT-PCR; assay type: in vivo, Mouse (mdx); details: for % Exon 23 Skip (Average), Diaphragm / % Exon 23 Skip (Average), Heart / % Exon 23 Skip (Average), Quadricep (L): mdx mice, 7 days post-dose, n=5
From the text: The aim of this study was to compare efficacy of peptide-oligomer-conjugates of the disclosure in a dose response study in mice. The spacing between the peptide and PMO modulates efficacy. Accordingly, PEG lengths of 3, 4, and 8 were used to systematically increase spacing between Ac-R6-Gly (SEQ ID NO:1) and the PMO. Additionally, an all-D amino acid version of Ac-R6-Gly (SEQ ID NO:1) and Ac-R6-Apa (SEQ ID NO:4) (4-amino phenyl acetic acid; aromatic, hydrophobic linker) were used (Table 2).
Selected peptide-oligomer-conjugates that were tested are listed in Table 2 (the peptide-oligomer-conjugates were formulated in saline and stored at 5° C.).
Animals were randomized into treatment groups based on cage weights as specified in Table 4.
as §2
On day 8 (7 days post-dose), all animals, including any untreated or spare animals, were humanely euthanized with carbon dioxide. Euthanasia was performed in accordance with accepted American Veterinary Medical Association (AVMA) guidelines on Euthanasia, June 2007.
Tissues were collected within 15 minutes or less of euthanasia. All instruments and tools used were changed between treatment groups. All tissues were flash frozen and stored at a temperature lower than −70° C. as soon as possible after collection. The following tissues were collected: liver, kidneys, heart, quads, and diaphragm.
RNA from mouse quadriceps, heart, and diaphragm tissue was purified using GE Illustra RNAspin 96 well extraction kits. Briefly, 400 μL of lysis buffer (RA1+1% 2-mercaptoethanol was added to about 20-30 mg of frozen tissue in a plate with zirconia beads (Biospec) and homogenized using GenoGrinder (Spex Sample Prep) at 4×8 minutes at 1750 RPM; cooling between each run. The homogenate was immediately processed for RNA purification according to the GE RNAspin Illustra 96 well protocol. Total RNA was quantitated with a Nanodrop 2000 spectrophotometer (ThermoScientific).
RNA was analyzed by a classic nested PCR reaction. RT-PCR reagents were from Invitrogen unless otherwise specified. PCR reactions were run in a CFX96 or S1000 thermocycler (BioRad). Final cDNA products were separated on a NuPage 10% TBE gel (Invitrogen) run at 200V, 1 hr at room temperature. Gels were scanned with a Typhoon Trio (GE Healthcare) using a 670 BP 30 Cy5 emission filter and analyzed with ImageQuant software.
Primers used for PCR analysis were as follows: dystrophin outer forward (5′-[…]-3′; SEQ ID NO:9), dystrophin outer reverse (5′-[…]-3′; SEQ ID NO:10), dystrophin inner forward (5′-[…]-3′; SEQ ID NO:11), and dystrophin inner reverse (5′-[…]-3′; SEQ ID NO:12).

[4] = design: species or system Mouse (mdx); details: mouse, in vivo
From the text: BUN levels are increased when compared to PPMO-8.

[5] = 100 mg/kg single i.v. injection
[6] = 150 mg/kg single i.v. injection
[7] = 200 mg/kg single i.v. injection
[8] = 5 mg/kg single i.v., day 8, one value per animal, 5 mg/kg
[9] = 10 mg/kg single i.v., day 8, one value per animal, 10 mg/kg
[10] = 20 mg/kg single i.v., day 8, one value per animal, 20 mg/kg
[11] = 40 mg/kg single i.v., day 8, one value per animal (FD = found dead), 40 mg/kg
[12] = 80 mg/kg single i.v., day 8, one value per animal, 80 mg/kg

Compound: CC(=O)N[C@@H](CCCNC(=N)N)C(=O)N[C@@H](CCCNC(=N)N)C(=O)N[C@@H](CCCNC(=N)N)C(=O)N[C@@H](CCCNC(=N)N)C(=O)N[C@@H](CCCNC(=N)N)C(=O)N[C@@H](CCCNC(=N)N)C(=O)NCC(=O)N1CCN(C(=O)OCCOCCOCCOC(=O)N2C[C@@H](COP(=O)(N(C)C)N3C[C@@H](COP(=O)(N(C)C)N4C[C@@H](COP(=O)(N(C)C)N5C[C@@H](COP(=O)(N(C)C)N6C[C@@H](COP(=O)(N(C)C)N7C[C@@H](COP(=O)(N(C)C)N8C[C@@H](COP(=O)(N(C)C)N9C[C@@H](COP(=O)(N(C)C)N%10C[C@@H](COP(=O)(N(C)C)N%11C[C@@H](COP(=O)(N(C)C)N%12C[C@@H](COP(=O)(N(C)C)N%13C[C@@H](COP(=O)(N(C)C)N%14C[C@@H](COP(=O)(N(C)C)N%15C[C@@H](COP(=O)(N(C)C)N%16C[C@@H](COP(=O)(N(C)C)N%17C[C@@H](COP(=O)(N(C)C)N%18C[C@@H](COP(=O)(N(C)C)N%19C[C@@H](COP(=O)(N(C)C)N%20C[C@@H](COP(=O)(N(C)C)N%21CCN(C(=O)OCCOCCOCCO)CC%21)O[C@@H](n%21cnc%22c(=O)[nH]c(N)nc%22%21)C%20)O[C@@H](n%20ccc(N)nc%20=O)C%19)O[C@@H](n%19cc(C)c(=O)[nH]c%19=O)C%18)O[C@@H](n%18cnc%19c(N)ncnc%19%18)C%17)O[C@@H](n%17cc(C)c(=O)[nH]c%17=O)C%16)O[C@@H](n%16cc(C)c(=O)[nH]c%16=O)C%15)O[C@@H](n%15cnc%16c(N)ncnc%16%15)C%14)O[C@@H](n%14ccc(N)nc%14=O)C%13)O[C@@H](n%13ccc(N)nc%13=O)C%12)O[C@@H](n%12cc(C)c(=O)[nH]c%12=O)C%11)O[C@@H](n%11cc(C)c(=O)[nH]c%11=O)C%10)O[C@@H](n%10cnc%11c(N)ncnc%11%10)C9)O[C@@H](n9cnc%10c(N)ncnc%109)C8)O[C@@H](n8ccc(N)nc8=O)C7)O[C@@H](n7ccc(N)nc7=O)C6)O[C@@H](n6ccc(N)nc6=O)C5)O[C@@H](n5cnc6c(N)ncnc65)C4)O[C@@H](n4cnc5c(=O)[nH]c(N)nc54)C3)O[C@@H](n3cc(C)c(=O)[nH]c3=O)C2)CC1 (stereo partly drawn) [PPMO-4]
- MTD % Survival ([1]; 50 mg/kg single i.v. injection): 100%
- MTD % Survival [1, 5]: 100%
- MTD in-life observations ([1]; 100 mg/kg single i.v.): 3/3 slow to recover at 15 min., ok by 2 hours
- MTD % Survival [1, 6]: 100%
- MTD in-life observations ([1]; 150 mg/kg single i.v.): 3/3 lethargic at 15 min., ok by 2 hours
- MTD % Survival [1, 7]: 0%
- MTD in-life observations ([1]; 200 mg/kg single i.v.): 3/3 lethargic at 15 min and 2 hours, 3/3 dead at 24 hours
- Individual body weight, pre-necropsy [2, 8]: 21.45 g and 22.61 g and 19.15 g and 19.6 g and 21.53 g
- Individual body weight, pre-necropsy [2, 9]: 19.41 g and 21.91 g and 18.98 g and 20.43 g and 20.49 g
- Individual body weight, pre-necropsy [2, 10]: 20.09 g and 21.25 g and 22.62 g and 20.71 g and 17.08 g
- Individual body weight, pre-necropsy [2, 11]: 20.59 g and 18.25 g and 22.63 g and 21.35 g and 21.22 g
- Individual body weight, pre-necropsy [2, 12]: 23.86 g and 17.9 g and 21.36 g and 21.1 g and 20.69 g
- Animal health observation ([3]; 5 mg/kg, at necropsy, animal 2406): right eye closed and had a white substance exuding from it
- Animal health observation ([3]; 40 mg/kg single i.v.): slow to recover at the 15 minute observation but recovered by the 2 hour observation
- Animal health observation ([3]; 80 mg/kg single i.v.): slow to recover at the 15 minute observation but recovered by the 2 hour observation

Compound: Ac-dR6-G (all-D amino acid R) (SEQ ID NO: 8) (RRRRRRG; N-acetyl; all-D amino acids; SITE 1 acetylation of N terminus; SITE 1..6 D-Arginine) [PPMO-7]
- MTD % Survival ([1]; 50 mg/kg single i.v. injection): 100%
- MTD % Survival [1, 5]: 100%
- MTD in-life observations ([1]; 100 mg/kg single i.v.): 3/3 slow to recover at 15 min., ok by 2 hours
- MTD % Survival [1, 6]: 100%
- MTD in-life observations ([1]; 150 mg/kg single i.v.): 3/3 slow to recover at 15 min., ok by 2 hours
- MTD % Survival [1, 7]: 33%
- MTD in-life observations ([1]; 200 mg/kg single i.v.): 2/3 dead at 15 minutes, 1/3 lethargic at 15 min and 2 hours
- Tolerability ([1]; MTD study, in words): not well-tolerated
- Individual body weight, pre-necropsy [2, 8]: 22.3 g and 22.46 g and 23.21 g and 21.43 g and 23.41 g
- Individual body weight, pre-necropsy [2, 9]: 17.85 g and 22.7 g and 23.56 g and 21.97 g and 21.8 g
- Individual body weight, pre-necropsy [2, 10]: 20.85 g and 20.17 g and 21.1 g and 21.38 g and 24.55 g
- Individual body weight, pre-necropsy [2, 11]: 22.58 g and 22.21 g and 21.29 g and 18.19 g and 20.93 g
- Individual body weight, pre-necropsy [2, 12]: 21.98 g and 22.63 g and 19.65 g and 19.9 g and 22.86 g
- Efficacy (% exon 23 skipping), in words (dystrophin exon 23; comparison with other conjugates / linkers): improved efficacy
- % Exon 23 Skip (Average), Diaphragm (dystrophin exon 23; 5 mg/kg single i.v. injection): 1%
- % Exon 23 Skip (Average), Heart (dystrophin exon 23; 5 mg/kg single i.v. injection): 0%
- % Exon 23 Skip (Average), Quadricep (L) (dystrophin exon 23; 5 mg/kg single i.v. injection): 4%
- % Exon 23 Skip (Average), Diaphragm (dystrophin exon 23; 10 mg/kg single i.v. injection): 6%
- % Exon 23 Skip (Average), Heart (dystrophin exon 23; 10 mg/kg single i.v. injection): 2%
- % Exon 23 Skip (Average), Quadricep (L) (dystrophin exon 23; 10 mg/kg single i.v. injection): 11%
- % Exon 23 Skip (Average), Diaphragm (dystrophin exon 23; 20 mg/kg single i.v. injection): 30%
- % Exon 23 Skip (Average), Heart (dystrophin exon 23; 20 mg/kg single i.v. injection): 13%
- % Exon 23 Skip (Average), Quadricep (L) (dystrophin exon 23; 20 mg/kg single i.v. injection): 53%
- % Exon 23 Skip (Average), Diaphragm (dystrophin exon 23; 40 mg/kg single i.v. injection): 67%
- % Exon 23 Skip (Average), Heart (dystrophin exon 23; 40 mg/kg single i.v. injection): 42%
- % Exon 23 Skip (Average), Quadricep (L) (dystrophin exon 23; 40 mg/kg single i.v. injection): 89%
- % Exon 23 Skip (Average), Diaphragm (dystrophin exon 23; 80 mg/kg single i.v. injection): 93%
- % Exon 23 Skip (Average), Heart (dystrophin exon 23; 80 mg/kg single i.v. injection): 93%
- % Exon 23 Skip (Average), Quadricep (L) (dystrophin exon 23; 80 mg/kg single i.v. injection): 92%
- Liver and kidney serum chemistry markers [4]: increased liver and kidney serum chemistry markers
